In the RNAGym collection of RNA variant scans (doi:10.7554/elife.90254):

B1: LINE1-mini (parent)
chain: GGCAGAGCUCAACACAGCGUGGCAAAGUGGCUGUGGCUAGACUGCC

Variants of: B1
Experiment: self-cleavage, relative activity (ratio to wild type); higher = more cleavage; in vitro, sequencing; the parent is a self-cleaving ribozyme

For UGCUGAGCUCAACACAGCGUGGCAAAGUGGCUGUGGCUAGACUGCC, which self-cleavage is on record?
The self-cleavage was 0.22.

For GGCAGAGCUCAACAAAGCGUGGCAAAGUGGCUGUGGCUAGACUGCC, which self-cleavage is on record?
The self-cleavage was 0.1.

Which self-cleavage does the source give for GGCAGAGCUCAACACAGCGUGGCAAAGUCGCUGUGGCGAGACUGCC here?
The self-cleavage was 0.02.

With GGCAGAGCUCAACACAGCGUGGCAAAGCGGCUGUGGCUAGACAGCC as the variant, how does the self-cleavage read?
Its self-cleavage is 0.08.

Which self-cleavage does the source give for GGCAGAGCUCAACACAGGGUGGCAAAGUGGCUGUGGCCAGACUGCC here?
The self-cleavage was 0.16.

With GGCAGAGCACAACACAGCGUGGCAAAGUGGCUGUGGCUAGACGGCC as the variant, how does the self-cleavage read?
Its self-cleavage is 0.28.

With GCCAGAGCUCAACACAGCGUGGCAGAGUGGCUGUGGCUAGACUGCC as the variant, how does the self-cleavage read?
Its self-cleavage is 0.06.

Which self-cleavage does the source give for GGCAGAGCUCAACACAGCGUGGCAAAGUGGAUGUGGCUGGACUGCC here?
Its self-cleavage is 0.05.

For GGCAGAGCUCAACACAGCGUGCCAAAGUGGCUGGGGCUAGACUGCC, which self-cleavage is on record?
The self-cleavage was 0.17.

For GGGAGAGCUCAACACAGCGUGGCAAAGUGGCUAUGGCUAGACUGCC, which self-cleavage is on record?
The self-cleavage was 0.23.

With GGCAGAGCUCAACACAGCGUGGCAAAGUAGCUGUGGAUAGACUGCC as the variant, how does the self-cleavage read?
The self-cleavage was 0.1.

For GGCAGAGCUCAUCACAGCGUGGCAAAGUGGCUGUGGCUAGACUGAC, which self-cleavage is on record?
Its self-cleavage is 0.38.

For GGCAGAGCUCAACACAGCGUGGCAAAUUCGCUGUGGCUAGACUGCC, which self-cleavage is on record?
The self-cleavage was 0.27.

Which self-cleavage does the source give for GGCCGAGCUCACCACAGCGUGGCAAAGUGGCUGUGGCUAGACUGCC here?
Its self-cleavage is 0.03.

For GGCAGGGCUCAACACAGCGUGGCAAAGUGGCUGUGGCUCGACUGCC, which self-cleavage is on record?
Its self-cleavage is 0.15.

For GGCAGAUCUCAACACAGCGUGGCAAAGUGGCGGUGGCUAGACUGCC, which self-cleavage is on record?
The self-cleavage was 0.11.

Which self-cleavage does the source give for GGCAGAGCUCAACACGGCGUGGCAAAGUGGCUGUGGCUAAACUGCC here?
Its self-cleavage is 0.05.

For GGCAGAGCUCAACACAGCGUGGCAAGGUGGCUGUGGUUAGACUGCC, which self-cleavage is on record?
Its self-cleavage is 0.04.

With CGCAGAGCUCAACGCAGCGUGGCAAAGUGGCUGUGGCUAGACUGCC as the variant, how does the self-cleavage read?
The self-cleavage was 0.08.

Which self-cleavage does the source give for GGUAGAGCUCAACACAGCGUGGCAAAGUGGCCGUGGCUAGACUGCC here?
The self-cleavage was 0.19.

Which self-cleavage does the source give for GGCCGAGCUCAACACAGCGUGGCAAAGUGGCUGGGGCUAGACUGCC here?
Its self-cleavage is 0.02.

Which self-cleavage does the source give for GGCAGAGCUCAACACAGCGUGGCAAAGUGGCUGUGGCUAGACGGCU here?
The self-cleavage was 0.28.

Which self-cleavage does the source give for GGCAGAGCUCAACAUAGCGUGGCAAAGUGGCUGUGGCUAGACUACC here?
The self-cleavage was 0.26.

Which self-cleavage does the source give for UGCAGAGCUCAACACAGCGUGGCAAAGUGGCUGUGGCUAGACUGCU here?
The self-cleavage was 0.43.

With GGCAGAGCUCAACACAGCGUGGCGUAGUGGCUGUGGCUAGACUGCC as the variant, how does the self-cleavage read?
The self-cleavage was 1.3.

With GGCAGAGCUCAACACAGCGCGGCAAAGUGGCUGUGGCUAGUCUGCC as the variant, how does the self-cleavage read?
The self-cleavage was 0.46.

Which self-cleavage does the source give for GGCAGAGCUCAACACAUCGUGGCAAAGUGGCUAUGGCUAGACUGCC here?
The self-cleavage was 0.06.

For GGCAAAGCUCAGCACAGCGUGGCAAAGUGGCUGUGGCUAGACUGCC, which self-cleavage is on record?
The self-cleavage was 0.08.

With GGCAGAGCUCAACACCGCGUGGCAAAGUGGCGGUGGCUAGACUGCC as the variant, how does the self-cleavage read?
Its self-cleavage is 0.4.

With GGCAGAGCUCAACGCAGCGUGGCAAAGUGGCUGUGGCUAGCCUGCC as the variant, how does the self-cleavage read?
Its self-cleavage is 0.05.

Which self-cleavage does the source give for UGCAGAGCUCAACUCAGCGUGGCAAAGUGGCUGUGGCUAGACUGCC here?
The self-cleavage was 0.16.

For GGCAGAGCUCAACACAGUGUGGCAAAGUGGGUGUGGCUAGACUGCC, which self-cleavage is on record?
The self-cleavage was 0.05.

For GGCAGAGCUCAACACAGCGUGGCAAAGGGGCUGUGGCUAGAGUGCC, which self-cleavage is on record?
The self-cleavage was 0.03.

For GGCAGAGCUCUACACAGCGUGGCAAAGUGGCUGUGGCUAUACUGCC, which self-cleavage is on record?
The self-cleavage was 0.04.

Which self-cleavage does the source give for GGCUGGGCUCAACACAGCGUGGCAAAGUGGCUGUGGCUAGACUGCC here?
The self-cleavage was 0.16.

With GGCAGAGCUCAACACAGCGUGGUAAACUGGCUGUGGCUAGACUGCC as the variant, how does the self-cleavage read?
Its self-cleavage is 0.73.

For GGCAGAUCUCUACACAGCGUGGCAAAGUGGCUGUGGCUAGACUGCC, which self-cleavage is on record?
Its self-cleavage is 0.04.

With GGCAGAGAUCAACACAGCGUGGCAAAGUUGCUGUGGCUAGACUGCC as the variant, how does the self-cleavage read?
Its self-cleavage is 0.43.

With AGCAGAGCUCAACACAGCGUGGCAAAGUGGCUGUGGCUACACUGCC as the variant, how does the self-cleavage read?
The self-cleavage was 0.07.

With GGCAGAGCUCAACACAGCGUGGCCAAGUGGCUGUGGCUAGACAGCC as the variant, how does the self-cleavage read?
Its self-cleavage is 0.02.

With GGCAGAGAUCAACACAGCAUGGCAAAGUGGCUGUGGCUAGACUGCC as the variant, how does the self-cleavage read?
Its self-cleavage is 0.38.

Which self-cleavage does the source give for GGCAGAGCUCAACACAGCGUGGCAAAGUGGCUUUGGCUAAACUGCC here?
Its self-cleavage is 0.03.

Which self-cleavage does the source give for GGCAGAGCUCAACACCGCGUGGCAAAGUGGCUGGGGCUAGACUGCC here?
The self-cleavage was 0.05.

Which self-cleavage does the source give for GGCAGAGCUCAACACAGCGUGGCAAAGUGGCUGUGGCGAAACUGCC here?
Its self-cleavage is 0.04.

Which self-cleavage does the source give for GGCAGAGCUCAACACAGCGUGGCAAAGUGGCUGUGGGUAGACUGCC here?
Its self-cleavage is 0.05.

For GGCAGAGCUCAAUACAGCGUGGCAAAGUGGCCGUGGCUAGACUGCC, which self-cleavage is on record?
Its self-cleavage is 0.08.

Which self-cleavage does the source give for GGCAGAGCUCAACAGAGCGUGGCAAAAUGGCUGUGGCUAGACUGCC here?
Its self-cleavage is 0.05.

Which self-cleavage does the source give for GGCAGAGCUCAACAGAGCGUGGCAAAGUGGCUGUGGCUAGACUGAC here?
Its self-cleavage is 0.02.

Which self-cleavage does the source give for GGCAGACCUCAACACAGCGUGGCAAAGUGGCUGUGGCUAGAUUGCC here?
Its self-cleavage is 0.09.

Which self-cleavage does the source give for CGCAGAGCUCAACACAGCGUGGUAAAGUGGCUGUGGCUAGACUGCC here?
The self-cleavage was 0.07.

Which self-cleavage does the source give for GGCAGAGCUCAACACAGCGUGGCAAAGUGGCUGUGGCUAGACUCCU here?
The self-cleavage was 0.14.

For GGCAGAGCUCAACACAGCGUGGCAAAGUGGCUAUGGCUAGACUGGC, which self-cleavage is on record?
The self-cleavage was 0.07.

For GGCUGAGCUCAACAAAGCGUGGCAAAGUGGCUGUGGCUAGACUGCC, which self-cleavage is on record?
The self-cleavage was 0.08.

With GGCAGAGCUCAACACAGCGUGGCAAAGUGGCUGUGCCUAGACUGCU as the variant, how does the self-cleavage read?
The self-cleavage was 0.05.

Which self-cleavage does the source give for GGCAGAGCUCAACCCAGCGUGGCAAAGUGGCUGUGGCUAGACUGCG here?
The self-cleavage was 0.08.

With AGCAGAGCUCAACUCAGCGUGGCAAAGUGGCUGUGGCUAGACUGCC as the variant, how does the self-cleavage read?
The self-cleavage was 0.27.
